Results published in patent publication US20210261685A1 (Alector, published 2021).

T1: Recombinant human MerTK human Fc Chimera protein (R&D systems, Cat #391-MR-100) (human, UniProt Q12866 26-499, limits assumed)
T1 construct: Bought; also called recombinant human MerTK protein; MerTK-Fc
T1 sequence: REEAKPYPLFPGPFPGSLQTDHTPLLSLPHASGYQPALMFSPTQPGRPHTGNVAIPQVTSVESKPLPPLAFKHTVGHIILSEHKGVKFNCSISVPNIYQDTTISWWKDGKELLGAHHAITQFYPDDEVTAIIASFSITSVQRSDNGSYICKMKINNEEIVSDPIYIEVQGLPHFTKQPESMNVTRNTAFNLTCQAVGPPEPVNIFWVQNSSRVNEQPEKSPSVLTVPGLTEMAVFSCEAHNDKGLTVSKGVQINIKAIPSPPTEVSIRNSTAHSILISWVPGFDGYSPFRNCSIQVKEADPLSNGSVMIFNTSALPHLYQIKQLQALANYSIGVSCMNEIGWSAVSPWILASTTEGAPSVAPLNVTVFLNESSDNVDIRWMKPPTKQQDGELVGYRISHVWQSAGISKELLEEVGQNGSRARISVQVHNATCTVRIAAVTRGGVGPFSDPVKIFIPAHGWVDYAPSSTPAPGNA

T2: cyno MerTK extracellular domain (ECD), recombinant (cynomolgus monkey, UniProt Q12866 21-505 (human entry))
T2 construct: also called cynomolgus MerTK; not shown: polyHis tag or TEVS/Thrombin/murine IgG2a Fc tag
T2 chain: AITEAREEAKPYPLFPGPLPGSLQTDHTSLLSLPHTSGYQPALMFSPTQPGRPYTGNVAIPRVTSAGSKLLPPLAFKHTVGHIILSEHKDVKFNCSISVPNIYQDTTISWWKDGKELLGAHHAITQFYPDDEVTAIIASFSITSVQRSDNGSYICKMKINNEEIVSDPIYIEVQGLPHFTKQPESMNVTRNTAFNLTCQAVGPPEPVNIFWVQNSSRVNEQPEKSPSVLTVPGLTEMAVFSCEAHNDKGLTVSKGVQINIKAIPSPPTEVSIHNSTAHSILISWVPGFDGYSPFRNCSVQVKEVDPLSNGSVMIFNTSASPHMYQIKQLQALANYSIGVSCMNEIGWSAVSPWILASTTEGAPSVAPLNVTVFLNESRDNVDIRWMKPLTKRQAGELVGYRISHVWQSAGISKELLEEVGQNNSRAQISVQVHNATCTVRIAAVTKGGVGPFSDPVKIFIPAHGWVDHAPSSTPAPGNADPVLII


What was measured:
[1] = molecular target: T1, Recombinant human MerTK human Fc …; test: competition ELISA, His-ProS on captured MerTK-Fc
How it was run: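 MerTK-Fc (2 μg/ml) captured on plate-bound anti-human IgG was exposed to anti-MerTK antibodies (66.6 nM-4 pM final) together with His-Gas6 at 3 μg/ml or His-ProS at 20 μg/ml for 1 h. Bound ligand was detected with HRP-anti-His and TMB. IC50 (nM) was derived from OD450 dose-response curves.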

[2] = molecular target: T2, cyno MerTK extracellular domain (ECD), …; test: SPR, Carterra LSA, antibody immobilised
How it was run: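 Anti-MerTK antibodies diluted to 10 μg/ml in 10 mM Acetate, pH 4.25 were amine-coupled in a 96-spot array onto an HC200M chip activated with MES/sulfo-NHS/EDC, then blocked with 1M Ethanolamine pH 8.5. On a Carterra LSA, recombinant MerTK extracellular domain was injected at 33.3, 100, and 300 nM in HBS-TE with 0.5 mg/ml BSA, lowest to highest without regeneration. KD came from fitted k-on and k-off.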

Row | IC50 [1] [nM] | Kd [2] [nM] | Binder
1 | 3.94 | 24 | MTK-02 (antibody, human IgG1, V domains shown) VH: QIQLVQSGPELKQPGETVKISCKASGYTFTDYGVNWVKQAPGKGLKWMGWINTYSGEPTYAGDFKGRFAFSLESSASTAFLQINNLKNEDMATYFCARRVRYWYFDVWGAGTSVTVSS VL: QIVLSQSPAILSASPGERVTMTCRANSSVSYMHWYQQKPGSSPKPWIYATSNLASGVPARFSASGSGTSYSLTVSRVEAEDAATYYCQQWGSNPFTFGSGTKLEIK
2 | 1.4 | 5.9 | MTK-36 (antibody, human IgG1, V domains shown) VH: QVTLKESGPGILQPSQTLSLTCSFSGFSLSTFGMGVGWIRQPSGKGLEWLAHIWWYDDKYYEPALKSRLTISKDSSKNQVFLKIANVDTADTATYYCARIYYGTSYRYFDVWGTGTTVTVSS VL: QIVLSQSPAILSAFPGEKVTMTCRATSSVRYMHWYQQKPGSSPKPWIYATYNLTSGVPARFSGSGSGTSYSLTISRVEAEDAATYYCHQWSSNPYTFGGGTKLEIK
3 | 7.61 | 53 | MTK-14 (antibody, human IgG1, V domains shown) VH: QIQLVQSGPELKKPGETVKISCKASGYTFTNYGMNWVKQAPGKDLQWMGWINTYTGEPTYADDFTGRFAFSLETSASTAYLQINNLKNEDTATYFCAKGGHYAWFAYWGQGTLVTVSA VL: QIVLSQSPAILSASPGEKVTMTCRSSSSVSYMHWYQQKPGSSPKPWIYATSNLASGVPGRFSGSGSGTSYSLTISRVEAEDAATYYCQQWGSNPRTFGGGTKLEIK
4 | 3.8 | 42 | MTK-08 (antibody, human IgG1, V domains shown) VH: QIQLVQSGPELKKPGETVKISCKASGYTFTNYGMNWVKQAPGKGLKWMGWINTYTGEPTYADDFKGRFAFSLETSASTAYLQINNLKNEDTATYFCAREVRYWYFDVWGAGTTVTVSS VL: QIVLSQSPAILSASPGEKVTMTCRATSSVSYMHWFQQKPGSSPKPWIYATSNLASGVPARFSGSGSGTSYSLTISRVEAEDAAAYYCQHWSGNPRTFGGGTKLEIK
